Experiment [1] addresses GFP N-terminal phosphorylation mutant 1MRRRRSII (Aequorea victoria).
Experiment [2] concerns the target GFP N-terminal phosphorylation mutant -2… (Aequorea victoria).
Experiment [3] addresses GFP N-terminal phosphorylation mutant 1MSRRRRSI (Aequorea victoria).
For experiment [4], the target named is GFP N-terminal phosphorylation mutant -1… (Aequorea victoria).
Experiment [5] addresses GFP N-terminal phosphorylation mutant -3… (Aequorea victoria).
Experiment [6] addresses GFP phosphorylation mutant 68RRFSA (Aequorea victoria). Particulars: scale: relative rate.
In experiment [7] the target is GFP phosphorylation mutant 155KRKSGI (Aequorea victoria). The settings on record: scale: relative rate.
Experiment [8] addresses GFP phosphorylation mutant 25RRFSV (Aequorea victoria). Particulars: scale: relative rate.
Experiment [9] has as its target GFP phosphorylation mutant 172RRGSV (Aequorea victoria). The settings on record: scale: relative rate.
The target of experiment [10] is GFP phosphorylation mutant 214KRDSM (Aequorea victoria). The settings on record: scale: relative rate.
In experiment [11] the target is GFP N-terminal phosphorylation mutant 1MSKRRDSL (Aequorea victoria). Particulars: scale: relative rate.
For experiment [12], the target named is GFP N-terminal phosphorylation mutant 1MRKGSLLF (Aequorea victoria). The settings on record: scale: relative rate.
The target of experiment [13] is wild-type Aequorea green fluorescent protein (Aequorea victoria). Particulars: scale: relative rate.
The target of experiment [14] is GFP N-terminal phosphorylation mutant 1MRKGSCLF (Aequorea victoria). The settings on record: scale: relative rate.
Experiment [15] concerns the target GFP N-terminal phosphorylation mutant 1MRRDSCLF (Aequorea victoria). The settings on record: scale: relative rate.
Experiment [16] concerns the target GFP N-terminal phosphorylation mutant 1MRRESLLF (Aequorea victoria). Particulars: scale: relative rate.
Experiment [17] has as its target GFP N-terminal phosphorylation mutant 1MSRRDSCF (Aequorea victoria). Particulars: scale: relative rate.

With “protein kinase A catalytic subunit (enzyme)”, the % Change in fluorescence upon phosphorylation in experiment [1] was found to be 70%; in experiment [2], 15%; in experiment [3], 40%; in experiment [4] it was 43%; in [5], 70%. For the same substance, the Relative rates of phosphorylation (32P incorporation) in [6] is 0.6; in experiment [7], 2.5; in [8] it was 1.75; in experiment [9], 1.57; in [10], 1.88; in experiment [11], 5.5. The Relative rates of phosphorylation (32P incorporation) was 1.6 in [12]; 1 in experiment [13]; 5.1 in experiment [14]; 3.7 in experiment [15]; 3 in experiment [16]; 2.1 in experiment [17].

The record behind these values is patent US5925558.
